Where a chain is given by its changes, count along the chain named. In names and notes the source's numbering stands.

B1: GST-C214 C6D (domain or fragment, human, UniProt P38432 362-576, looked up)
chain: AGAAGWRRSGSNGGGQAPGASPSVSLPASLGRGWGREENLFSWKGAKGRGMRGRGRGRGHPVSCVVNRSTDNQRQQQLNDVVKNSSTIIQNPVETPKKDYSLLPLLAAAPQVGEKIAFKLLELTSSYSPDVSDYKEGRILSHNPETQQVDIEILSSLPALREPGKFDLVYHNENGAEVVEYAVTQESKITVFWKELIDPRLIIEDPDNEDDEEPA
B2: GST-C214 DDE (domain or fragment, human, UniProt P38432 362-576, looked up)
chain: B1 chain with D205S, D207S, E209T
B3: GST-C214 S489D + DDE (domain or fragment, human, UniProt P38432 362-576, looked up)
chain: B1 chain with S128D, D205S, D207S, E209T
B4: GST-coilin DDE (natural protein)
chain: MAASETVRLRLQFDYPPPATPHCTAFWLLVDLNRCRVVTDLISLIRQRFGFSSGAFLGLYLEGGLLPPAESARLVRDNDCLRVKLEERGVAENSVVISNGDINLSLRKAKKRAFQLEEGEETEPDCKYSKKHWKSRENNNNNEKVLDLEPKAVTDQTVSKKNKRKNKATCGTVGDDNEEAKRKSPKKKEKCEYKKKAKNPKSPKVQAVKDWANQRCSSPKGSARNSLVKAKRKGSVSVCSKESPSSSSESESCDESISDGPSKVTLEARNSSEKLPTELSKEEPSTKNTTADKLAIKLGFSLTPSKGKTSGTTSSSSDSSAESDDQCLMSSSTPECAAGFLKTVGLFAGRGRPGPGLSSQTAGAAGWRRSGSNGGGQAPGASPSVSLPASLGRGWGREENLFSWKGAKGRGMRGRGRGRGHPVSCVVNRSTDNQRQQQLNDVVKNSSTIIQNPVETPKKDYSLLPLLAAAPQVGEKIAFKLLELTSSYSPDVSDYKEGRILSHNPETQQVDIEILSSLPALREPGKFDLVYHNENGAEVVEYAVTQESKITVFWKELIDPRLIIESPSNTDDEEPA

Chain of His-T7-SMN (Q16637 whole entry): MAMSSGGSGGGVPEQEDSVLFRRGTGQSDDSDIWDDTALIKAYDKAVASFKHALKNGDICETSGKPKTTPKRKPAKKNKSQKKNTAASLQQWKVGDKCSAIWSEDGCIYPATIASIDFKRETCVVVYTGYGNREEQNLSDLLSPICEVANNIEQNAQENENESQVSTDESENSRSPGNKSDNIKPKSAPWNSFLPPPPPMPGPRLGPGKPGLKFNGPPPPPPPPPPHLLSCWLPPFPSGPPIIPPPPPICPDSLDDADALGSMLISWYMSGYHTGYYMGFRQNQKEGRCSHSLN

The target in one assay is His-T7-SmB′ (UniProt P14678 1-240). As to the kind of experiment: pull-down.
As to B1, the binding result is “binds”.
Consider B2, for which the binding result is “binds”.
On the same count and under the same terms, with B3 the entry was “binds”.
Same read-out and setting: next, B4: “binds”.

A further assay concerns the target His-T7-SMN (UniProt Q16637 1-294). As to the kind of experiment: pull-down.
As to B1, the binding result was “binds”.
The same measure, in the same setting: next, B2: “binds”; B3: “binds”.

These data come from PMC2839002 (Chromosoma, 2009).
